Results taken from publication PMC7888922.

Assays:
[1] = target: sACE2_(2).v2.4-IgG1 (human) (UniProt Q9BYF1); assay: BLI
[2] = target: WT sACE2_(2)-IgG1 (human) (UniProt Q9BYF1); assay: BLI

Substance | Kd [1] [nM] | koff [1] [s⁻¹] | kon [1] [M⁻¹ s⁻¹] | Kd [2] [nM] | koff [2] [s⁻¹] | kon [2] [M⁻¹ s⁻¹]
RsSHC014 RBD-8h (domain or fragment) | 1.3 | 0.002 | 1.6e+06 | 29 | 0.026 | 880000
SARS-CoV-2 RBD-8h (from UniProt P0DTC2 333-529) (domain or fragment) | 0.4 | 0.00028 | 660000 | – | – | –
